The values that follow come from publication PMC4434323.

The target in data set [1] is T1, K11D2.4 (K11D2.4) (Caenorhabditis elegans) (UniProt G5EBU1).
T1 sequence: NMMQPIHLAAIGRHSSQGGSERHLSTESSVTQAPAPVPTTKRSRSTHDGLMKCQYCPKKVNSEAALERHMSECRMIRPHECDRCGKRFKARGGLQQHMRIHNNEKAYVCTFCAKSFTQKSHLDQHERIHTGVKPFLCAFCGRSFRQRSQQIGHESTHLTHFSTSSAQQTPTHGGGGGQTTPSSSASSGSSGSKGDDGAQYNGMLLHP

The target of data set [2] is T2, lin-29 (W03C9.4) (Caenorhabditis elegans) (UniProt G5EGB2).
T2 sequence: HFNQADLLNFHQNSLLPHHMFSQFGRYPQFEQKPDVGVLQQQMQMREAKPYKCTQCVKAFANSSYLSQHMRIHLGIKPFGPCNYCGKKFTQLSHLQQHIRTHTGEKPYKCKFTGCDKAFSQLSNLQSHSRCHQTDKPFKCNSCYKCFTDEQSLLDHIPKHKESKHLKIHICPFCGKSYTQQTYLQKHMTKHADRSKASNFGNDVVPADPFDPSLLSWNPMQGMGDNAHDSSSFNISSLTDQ

Data set [3] addresses T3, ztf-19 (T27B1.2) (Caenorhabditis elegans) (UniProt Q22829).
T3 sequence: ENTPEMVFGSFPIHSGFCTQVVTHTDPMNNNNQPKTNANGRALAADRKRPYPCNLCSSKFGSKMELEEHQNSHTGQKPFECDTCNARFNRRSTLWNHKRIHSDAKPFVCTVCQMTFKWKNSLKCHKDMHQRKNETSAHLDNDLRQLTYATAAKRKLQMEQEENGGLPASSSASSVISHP

Data set [4] deals with T4, ztf-6 (W06H12.1) (Caenorhabditis elegans) (UniProt G5EC77).
T4 sequence: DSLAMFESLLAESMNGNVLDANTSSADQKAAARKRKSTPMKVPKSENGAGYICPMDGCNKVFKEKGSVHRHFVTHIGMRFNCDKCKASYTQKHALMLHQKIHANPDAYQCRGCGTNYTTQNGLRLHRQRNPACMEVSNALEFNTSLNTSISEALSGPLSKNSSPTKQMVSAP

Data set [5] deals with T5, Y53H1A.2 (Y53H1A.2) (Caenorhabditis elegans) (UniProt B1V8K4).
T5 sequence: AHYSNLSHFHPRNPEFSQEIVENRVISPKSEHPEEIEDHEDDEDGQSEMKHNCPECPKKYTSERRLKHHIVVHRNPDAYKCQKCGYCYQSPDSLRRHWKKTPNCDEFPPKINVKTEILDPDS

Data set [6] has as its target T6, T22C8.4 (T22C8.4) (Caenorhabditis elegans) (UniProt Q22677).
T6 sequence: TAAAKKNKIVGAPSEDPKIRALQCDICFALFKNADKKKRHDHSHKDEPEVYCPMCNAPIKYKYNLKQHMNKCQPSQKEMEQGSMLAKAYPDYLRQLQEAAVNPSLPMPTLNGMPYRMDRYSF

For the sequence “CAAAAAAA (double strand) [8-mer CAAAAAAA]”, the values for the binding signal (PBM E-score (-0.5 to 0.5)) in data set [1] and in data set [2] were 0.498 and 0.496, respectively. In turn, “GTGTAACA (double strand) [8-mer GTGTAACA]” registered a binding signal (PBM E-score (-0.5 to 0.5)) in data set [3] of 0.494. On the same count and under the same terms, then “CAGTGTAA (double strand) [8-mer CAGTGTAA]”, with 0.494.

The sequence “TGCTGAAA (double strand) [8-mer TGCTGAAA]” displayed a binding signal (PBM E-score (-0.5 to 0.5)) in data set [4] of 0.494. The same measure, in the same setting: in the case of “AATTTCAG (double strand) [8-mer AATTTCAG]” it was 0.493. Turning to “AAAAAAAT (double strand) [8-mer AAAAAAAT]”, the figures for the binding signal (PBM E-score (-0.5 to 0.5)) in data set [1] and in data set [2] were 0.498 and 0.496, respectively.

In turn, “AGTGTAAA (double strand) [8-mer AGTGTAAA]” showed a binding signal (PBM E-score (-0.5 to 0.5)) in data set [3] of 0.494. As for “AAAAAACT (double strand) [8-mer AAAAAACT]”, the binding signal (PBM E-score (-0.5 to 0.5)) in data set [2] stood at 0.495. Turning to “ATTTCAGC (double strand) [8-mer ATTTCAGC]”, in data set [4], the binding signal (PBM E-score (-0.5 to 0.5)) stood at 0.492. In data set [3], “ATTACACA (double strand) [8-mer ATTACACA]” showed a binding signal (PBM E-score (-0.5 to 0.5)) of 0.493. Still for that read-out and setting: in the case of “CGTTGTAA (double strand) [8-mer CGTTGTAA]” it was 0.493.

For “CCACCACC (double strand) [8-mer CCACCACC]”, in data set [5], the binding signal (PBM E-score (-0.5 to 0.5)) came out at 0.486. Regarding “GGCTGAAA (double strand) [8-mer GGCTGAAA]”, the binding signal (PBM E-score (-0.5 to 0.5)) in data set [4] stood at 0.491.

Consider “GCAGGGGC (double strand) [8-mer GCAGGGGC]”, for which the binding signal (PBM E-score (-0.5 to 0.5)) in data set [6] amounted to 0.498.

In data set [5], “CGGCCGGC (double strand) [8-mer CGGCCGGC]” yielded a binding signal (PBM E-score (-0.5 to 0.5)) of 0.486.

In data set [5], “CGGTCGTC (double strand) [8-mer CGGTCGTC]” showed a binding signal (PBM E-score (-0.5 to 0.5)) of 0.483. Regarding “AGCTGAAA (double strand) [8-mer AGCTGAAA]”, the binding signal (PBM E-score (-0.5 to 0.5)) in data set [4] was found to be 0.491. Regarding “GAAAAAAA (double strand) [8-mer GAAAAAAA]”, the binding signal (PBM E-score (-0.5 to 0.5)) in data set [1] amounted to 0.498; in data set [2], 0.495. Regarding “ATTTCAGA (double strand) [8-mer ATTTCAGA]”, in data set [4], the binding signal (PBM E-score (-0.5 to 0.5)) came to 0.491. Sequence “GCTGAAAA (double strand) [8-mer GCTGAAAA]” yielded a binding signal (PBM E-score (-0.5 to 0.5)) in data set [4] of 0.492. In turn, “CTTTACAC (double strand) [8-mer CTTTACAC]” came in with a binding signal (PBM E-score (-0.5 to 0.5)) in data set [3] of 0.494.

Sequence “GTGTAATA (double strand) [8-mer GTGTAATA]” showed a binding signal (PBM E-score (-0.5 to 0.5)) in data set [3] of 0.497.

The sequence “ATTACAAC (double strand) [8-mer ATTACAAC]” showed a binding signal (PBM E-score (-0.5 to 0.5)) in data set [3] of 0.496.

The sequence “CCCCTGCA (double strand) [8-mer CCCCTGCA]” registered a binding signal (PBM E-score (-0.5 to 0.5)) in data set [6] of 0.493. Turning to “ATAAAAAA (double strand) [8-mer ATAAAAAA]”, the binding signal (PBM E-score (-0.5 to 0.5)) in data set [1] and in data set [2] was 0.498 throughout. “ACCACCGC (double strand) [8-mer ACCACCGC]” came in with a binding signal (PBM E-score (-0.5 to 0.5)) in data set [5] of 0.483. “TATAAAAA (double strand) [8-mer TATAAAAA]” came in with a binding signal (PBM E-score (-0.5 to 0.5)) in data set [2] of 0.494. With “AAAAAAAG (double strand) [8-mer AAAAAAAG]”, the binding signal (PBM E-score (-0.5 to 0.5)) in data set [1] worked out at 0.498; in data set [2] it was 0.495. “GTAAAAAA (double strand) [8-mer GTAAAAAA]” had a binding signal (PBM E-score (-0.5 to 0.5)) in data set [2] of 0.494. Take “GCTGAAAC (double strand) [8-mer GCTGAAAC]”: in data set [4], the binding signal (PBM E-score (-0.5 to 0.5)) was 0.495.

In turn, “GCAAAAAA (double strand) [8-mer GCAAAAAA]” gave a binding signal (PBM E-score (-0.5 to 0.5)) in data set [2] of 0.494. Consider “ACCCTGCT (double strand) [8-mer ACCCTGCT]”, for which the binding signal (PBM E-score (-0.5 to 0.5)) in data set [6] is 0.487. “TAAAAAAA (double strand) [8-mer TAAAAAAA]”: the binding signal (PBM E-score (-0.5 to 0.5)) in data set [1] and in data set [2] was 0.498 throughout.

“GTTTTTTA (double strand) [8-mer GTTTTTTA]”: the binding signal (PBM E-score (-0.5 to 0.5)) in data set [2] is 0.494. In the case of “ATCTGAAA (double strand) [8-mer ATCTGAAA]”, the binding signal (PBM E-score (-0.5 to 0.5)) in data set [4] was found to be 0.492. Sequence “GGTGGGCA (double strand) [8-mer GGTGGGCA]” gave a binding signal (PBM E-score (-0.5 to 0.5)) in data set [5] of 0.487.

As for “AGTGTAAC (double strand) [8-mer AGTGTAAC]”, the binding signal (PBM E-score (-0.5 to 0.5)) in data set [3] amounted to 0.491. “CCCCTGCC (double strand) [8-mer CCCCTGCC]”: the binding signal (PBM E-score (-0.5 to 0.5)) in data set [6] amounted to 0.479. In turn, “CATAAAAA (double strand) [8-mer CATAAAAA]” gave a binding signal (PBM E-score (-0.5 to 0.5)) in data set [2] of 0.494. With “ACCCCTGC (double strand) [8-mer ACCCCTGC]”, in data set [6], the binding signal (PBM E-score (-0.5 to 0.5)) came out at 0.494. As for “AAAAAAAC (double strand) [8-mer AAAAAAAC]”, the binding signal (PBM E-score (-0.5 to 0.5)) in data set [1] amounted to 0.498; in data set [2], 0.497. Take “CGCTGAAA (double strand) [8-mer CGCTGAAA]”: the binding signal (PBM E-score (-0.5 to 0.5)) in data set [4] is 0.49. “GTTTCAGA (double strand) [8-mer GTTTCAGA]”: the binding signal (PBM E-score (-0.5 to 0.5)) in data set [4] was determined as 0.494.

In turn, “CACCCTGC (double strand) [8-mer CACCCTGC]” had a binding signal (PBM E-score (-0.5 to 0.5)) in data set [6] of 0.49.

With “CGGTCGGC (double strand) [8-mer CGGTCGGC]”, the binding signal (PBM E-score (-0.5 to 0.5)) in data set [5] was 0.487. Regarding “AAAAAAAA (double strand) [8-mer AAAAAAAA]”, the binding signal (PBM E-score (-0.5 to 0.5)) amounted to 0.5 in data set [1] and 0.499 in data set [2]. The sequence “CGGTGGTC (double strand) [8-mer CGGTGGTC]” had a binding signal (PBM E-score (-0.5 to 0.5)) in data set [5] of 0.481. “CGGCGGCC (double strand) [8-mer CGGCGGCC]” yielded a binding signal (PBM E-score (-0.5 to 0.5)) in data set [5] of 0.485. “AGTGTAAT (double strand) [8-mer AGTGTAAT]” yielded a binding signal (PBM E-score (-0.5 to 0.5)) in data set [3] of 0.497.

In data set [3], “TAGTGTAA (double strand) [8-mer TAGTGTAA]” came in with a binding signal (PBM E-score (-0.5 to 0.5)) of 0.495. For the sequence “CCCCCTGC (double strand) [8-mer CCCCCTGC]”, in data set [6], the binding signal (PBM E-score (-0.5 to 0.5)) stood at 0.488. As for “CCCTGCAG (double strand) [8-mer CCCTGCAG]”, in data set [6], the binding signal (PBM E-score (-0.5 to 0.5)) was determined as 0.483. In the case of “TGTGTAAA (double strand) [8-mer TGTGTAAA]”, the binding signal (PBM E-score (-0.5 to 0.5)) in data set [3] was 0.491.

For “CGACCACC (double strand) [8-mer CGACCACC]”, the binding signal (PBM E-score (-0.5 to 0.5)) in data set [5] turned out to be 0.486. For the sequence “ATTTTCAG (double strand) [8-mer ATTTTCAG]”, in data set [4], the binding signal (PBM E-score (-0.5 to 0.5)) was 0.493. Turning to “CCCTGCTC (double strand) [8-mer CCCTGCTC]”, the binding signal (PBM E-score (-0.5 to 0.5)) in data set [6] turned out to be 0.479.

For the sequence “AGAAAAAA (double strand) [8-mer AGAAAAAA]”, the binding signal (PBM E-score (-0.5 to 0.5)) in data set [1] was found to be 0.498; in data set [2], 0.494. “TCTGAAAA (double strand) [8-mer TCTGAAAA]”: the binding signal (PBM E-score (-0.5 to 0.5)) in data set [4] amounted to 0.492.

In data set [5], “GGTCGGCA (double strand) [8-mer GGTCGGCA]” registered a binding signal (PBM E-score (-0.5 to 0.5)) of 0.481.

In the case of “AGTTTCAG (double strand) [8-mer AGTTTCAG]”, the binding signal (PBM E-score (-0.5 to 0.5)) in data set [4] is 0.496.

In turn, “CCCTGCTA (double strand) [8-mer CCCTGCTA]” returned a binding signal (PBM E-score (-0.5 to 0.5)) in data set [6] of 0.486. In turn, “GTCTGAAA (double strand) [8-mer GTCTGAAA]” came in with a binding signal (PBM E-score (-0.5 to 0.5)) in data set [4] of 0.495.

In data set [5], “GCGGCCGC (double strand) [8-mer GCGGCCGC]” showed a binding signal (PBM E-score (-0.5 to 0.5)) of 0.488. Still for that read-out and setting: in the case of “CGGCCGCC (double strand) [8-mer CGGCCGCC]” it was 0.489. “AGCAGGGA (double strand) [8-mer AGCAGGGA]”: in data set [6], the binding signal (PBM E-score (-0.5 to 0.5)) is 0.466.

The sequence “CCCCTGCG (double strand) [8-mer CCCCTGCG]” showed a binding signal (PBM E-score (-0.5 to 0.5)) in data set [6] of 0.493.

“GCAGGGGA (double strand) [8-mer GCAGGGGA]” gave a binding signal (PBM E-score (-0.5 to 0.5)) in data set [6] of 0.495. As to “CATTACAC (double strand) [8-mer CATTACAC]”, in data set [3], the binding signal (PBM E-score (-0.5 to 0.5)) was 0.494.
